This is an account of results in patent publication US20060002928A1.

The target in assay [1] is murine B7-DC (murine) (UniProt Q9WUL5). The assay can be described thus: flow cytometry competition on murine bone marrow derived DC; preincubation with PD-1.Ig, staining with sHIgM12 as competitor read out. Background: In flow cytometry, cells or beads pass a laser one at a time.
The target is the same in assay [2]. The assay can be described thus: cell-based or functional assay.
For assay [3] the target is unchanged. The assay can be described thus: flow cytometry on 293T cells transfected with murine B7-DC.
For assay [4] the target is unchanged. The assay can be described thus: flow cytometry competition on murine DC; preincubation with sHIgM12, staining with PD-1.Ig as competitor read out.

Chain of murine B7-DC (murine) (Q9WUL5 20-247): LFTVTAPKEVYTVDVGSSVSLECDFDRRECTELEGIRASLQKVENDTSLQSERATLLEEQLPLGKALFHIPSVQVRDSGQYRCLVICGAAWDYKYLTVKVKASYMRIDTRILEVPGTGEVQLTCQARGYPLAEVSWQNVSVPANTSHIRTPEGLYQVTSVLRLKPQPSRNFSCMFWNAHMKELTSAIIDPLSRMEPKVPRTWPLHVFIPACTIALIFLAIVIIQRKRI

PD-1.Ig fusion protein (Fc fusion) displayed a sHIgM12 staining left, percent of the level without PD-1 with murine B7-DC (murine) [1] of 50%.
In the assay with murine B7-DC (murine) [2], “sHIgM12 (human monoclonal IgM antibody, pentameric, purified from patient serum)” registered a GFP+, CD11c+ DC recovered from draining lymph nodes after adoptive transfer of 5 fold; an IL-12 p70 release by DC (ELISA of culture supernatants) of 3 fold; an ability of lymph node DC to induce an antigen-specific T cell response of 10 fold; a percentage of cellular metabolism (Alamar Blue) maintained 24 hours after cytokine withdrawal from DC of 80%. In the assay with murine B7-DC (murine) [3], this substance showed a percent of transfected cells stained of 97%. The substance also displayed a PD-1 binding left, percent of the level without sHIgM12 with murine B7-DC (murine) [4] of 20%.
